From PMC8360603 come the findings set out here.

For this test, the target named is DDB1/DCAF1 C-terminal domain complex (UniProt Q16531).
Sequence of UniProt Q16531 (Q16531 whole entry, chain 1 of 2, the tested form may be a part): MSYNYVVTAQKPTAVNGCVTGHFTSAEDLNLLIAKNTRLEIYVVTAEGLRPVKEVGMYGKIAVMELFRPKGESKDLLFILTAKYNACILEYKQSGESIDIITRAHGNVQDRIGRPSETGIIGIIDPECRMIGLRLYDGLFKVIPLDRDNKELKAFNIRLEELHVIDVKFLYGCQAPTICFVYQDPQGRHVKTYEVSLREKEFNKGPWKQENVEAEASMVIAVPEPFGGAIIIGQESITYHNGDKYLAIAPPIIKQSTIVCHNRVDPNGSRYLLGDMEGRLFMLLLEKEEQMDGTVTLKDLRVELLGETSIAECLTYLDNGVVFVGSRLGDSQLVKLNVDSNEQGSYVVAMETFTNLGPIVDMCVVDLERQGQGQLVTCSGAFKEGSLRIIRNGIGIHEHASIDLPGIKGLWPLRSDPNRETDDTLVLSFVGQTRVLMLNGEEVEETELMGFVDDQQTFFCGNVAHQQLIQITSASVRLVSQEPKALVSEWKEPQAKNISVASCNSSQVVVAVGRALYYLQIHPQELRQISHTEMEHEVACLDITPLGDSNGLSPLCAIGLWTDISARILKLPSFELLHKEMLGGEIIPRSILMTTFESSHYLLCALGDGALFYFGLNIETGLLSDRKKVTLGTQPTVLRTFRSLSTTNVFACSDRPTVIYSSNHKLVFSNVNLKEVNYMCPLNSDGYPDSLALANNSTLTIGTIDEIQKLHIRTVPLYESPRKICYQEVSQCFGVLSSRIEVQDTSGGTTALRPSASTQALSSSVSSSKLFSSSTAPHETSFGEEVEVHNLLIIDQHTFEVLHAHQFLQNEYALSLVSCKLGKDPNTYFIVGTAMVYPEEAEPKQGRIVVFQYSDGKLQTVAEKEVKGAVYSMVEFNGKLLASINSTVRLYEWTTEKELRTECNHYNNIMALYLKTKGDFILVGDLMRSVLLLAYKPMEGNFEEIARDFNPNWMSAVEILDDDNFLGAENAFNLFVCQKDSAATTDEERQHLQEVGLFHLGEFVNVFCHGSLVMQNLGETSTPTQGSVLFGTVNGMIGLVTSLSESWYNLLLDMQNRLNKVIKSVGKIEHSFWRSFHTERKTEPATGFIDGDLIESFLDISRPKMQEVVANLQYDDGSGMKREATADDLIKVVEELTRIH
Sequence of UniProt Q16531 (Q9Y4B6 1046-1396, chain 2 of 2, further chain): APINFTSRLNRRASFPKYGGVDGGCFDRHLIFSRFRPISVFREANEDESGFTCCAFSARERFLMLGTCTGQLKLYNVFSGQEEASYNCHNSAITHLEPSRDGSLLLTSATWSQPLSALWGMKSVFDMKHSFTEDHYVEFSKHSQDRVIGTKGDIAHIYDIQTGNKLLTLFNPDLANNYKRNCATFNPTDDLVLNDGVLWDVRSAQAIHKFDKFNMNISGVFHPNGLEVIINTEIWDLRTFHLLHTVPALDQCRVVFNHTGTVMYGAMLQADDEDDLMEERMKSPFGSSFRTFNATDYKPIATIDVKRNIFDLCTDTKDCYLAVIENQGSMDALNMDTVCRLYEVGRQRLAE

Turning to T4L-SAMHD1-CtD (domain or fragment), the in vitro ubiquitylation of T4L-SAMHD1-CtD by CRL4^DCAF1-CtD (UBA1, UBCH5C, ubiquitin, ATP) with HisSUMO-T4L-Vprmus (1-92), 0-15 min, SDS-PAGE; loss of the unmodified band was > 90%.
